Laboratory results reported in patent CN111018982A (DONGGUAN PENGZHI BIOTECHNOLOGY CO LTD, dated 2020).
Where two headings read alike, the source gives them in different places.

B1: WT 1-22 (antibody, V domains shown)
VH: EVQLQQSGPELVKPGASVKMSCKASGYSFTLYVLHWVKQKPGQGLEWIGYIYPYIDGTRYNEKFKGKATLTVDKSSSTAFMELSSLTSEDSAVYYCARTGYGNYGLAWLAYWGQGTLVTVSA
VL: QAVVIQESALTTSPGETVTLTCRSSSGAVTTSQYANWVQEKPDHLFTGLIGGSNNRVPGVPARFSGSLIGDKAALTITGAQTEDEAIYFCAIVYSNNWVFGGGTKLTVLG
B2: WT 1-5 (antibody, V domains shown)
VH: QVQLQQSGTELAKPGASVKFSCKASDYTFSSYWMYWIKQRPGQGLEWIGYLNPSTGHTEYNQKFKDKATLTADKSSSTAYMQLNSLTSEDSAVYYCARKYWGPFAMDYWGQGTSVTVSS
VL: EIFLTQSPAIMSASPGEKVTMTCSASSSVSYAHWYQQKSGTSPKRWIYDSSKIASGIPVRFSGSGSGTSYSLTISSMEAEDAATYYCQNWSTNPYTFGGGTKLEIKR
B3: Anti-cTnI 3C7 重组抗体 (WT) (antibody, V domains shown)
VH: EVKLDETGGGLVQPGRPMKLSCIASGATFSGYWMQWVRQSPEKGLEWVAQLRNGPYDFDTFYSDSVKDRFTISRDDSKSVYLQMNNLRAEDMGIYYCTPHFVHWGQGTLVTVSA
VL: DIVMTQSPSSLSVSEGEKVTLRCKSSNSLFNSGNQQNYLAWYQQKPGQPPKLLIYGPSTREFGVPDRFTGSGSGTDFTLISNVQEDLAVYYCQTDRTSAYTFGGGTKLEIK

How the values were obtained:
[1] = target: T1, cTnI质控品重组抗原 (human, UniProt P19429 1-210, limits assumed); experiment: BLI, antibody captured on AMC sensor, cTnI recombinant protein in solution
T1 construct: 人cTnI蛋白); also called cTnI质控品重组蛋白(公司自产重组抗原); 心肌肌钙蛋白I
T1 sequence (P19429 whole entry): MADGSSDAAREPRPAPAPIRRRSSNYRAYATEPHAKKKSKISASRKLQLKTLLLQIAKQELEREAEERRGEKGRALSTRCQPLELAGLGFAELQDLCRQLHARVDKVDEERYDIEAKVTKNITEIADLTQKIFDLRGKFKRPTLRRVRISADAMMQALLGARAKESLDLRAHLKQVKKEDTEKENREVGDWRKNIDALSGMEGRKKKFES

[2] = target: T1, cTnI质控品重组抗原; experiment: as above; remark: listed apart in the source

Binder | Kd [1] | koff [1] | kon [1] | Kd [2] | koff [2] | kon [2]
B1 | 47.8 nM | 0.000308 s⁻¹ | 6450 M⁻¹ s⁻¹ | – | – | –
B2 | 80.6 nM | 0.000533 s⁻¹ | 6610 M⁻¹ s⁻¹ | – | – | –
B3 | 33.5 nM | 0.00018 s⁻¹ | 5360 M⁻¹ s⁻¹ | 33.5 nM | 0.00018 s⁻¹ | 5360 M⁻¹ s⁻¹
